# Measurements taken from article PMC7376575 (The Biochemical journal, 2020).
# T1: catalytic domain of MMP-1 (UniProt P03956 106-261)
# T1 sequence: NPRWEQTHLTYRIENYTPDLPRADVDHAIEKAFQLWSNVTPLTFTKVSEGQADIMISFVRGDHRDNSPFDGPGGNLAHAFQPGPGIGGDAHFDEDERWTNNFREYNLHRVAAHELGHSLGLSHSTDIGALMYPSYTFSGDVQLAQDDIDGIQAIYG
# T2: biotinylated catalytic domain of MMP-1 (UniProt P03956 106-261, biotin on Lys residues)
# T2 sequence: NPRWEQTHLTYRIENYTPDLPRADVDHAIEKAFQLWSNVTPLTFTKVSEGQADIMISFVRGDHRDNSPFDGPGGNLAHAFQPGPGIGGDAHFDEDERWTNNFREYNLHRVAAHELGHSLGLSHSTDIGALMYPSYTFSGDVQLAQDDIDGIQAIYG
# Key:
# [1] = target: T1, catalytic domain of MMP-1; assay: enzyme inhibition assay
# [2] = target: catalytic domain of MMP-3 (UniProt P08254 100-272); assay: enzyme inhibition assay
# [3] = target: catalytic domain of MMP-14 (UniProt P50281 112-292); assay: enzyme inhibition assay
# [4] = target: T2, biotinylated catalytic domain of MMP-1; assay: flow cytometry on cells
# [5] = target: biotinylated catalytic domain of MMP-3 (UniProt P08254 100-272, biotin on Lys residues); assay: flow cytometry on cells
# [6] = target: biotinylated catalytic domain of MMP-14 (UniProt P50281 112-292, biotin on Lys residues (EZ-Link sulfo-NHS-LC-LC-biotin)); assay: flow cytometry on cells
# Sequence of catalytic domain of MMP-3 (P08254 100-272): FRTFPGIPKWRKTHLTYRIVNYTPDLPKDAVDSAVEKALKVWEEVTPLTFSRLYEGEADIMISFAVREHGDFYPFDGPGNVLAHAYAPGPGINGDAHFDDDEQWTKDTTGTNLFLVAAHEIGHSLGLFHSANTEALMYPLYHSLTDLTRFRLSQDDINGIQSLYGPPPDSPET
# Sequence of biotinylated catalytic domain of MMP-3 (P08254 100-272): as above
Binder,Ki [1] [nM],Ki [2] [nM],Ki [3] [nM],Kd [4] [nM],Kd [5] [nM],Kd [6] [nM]
"N-TIMP2 V71R (domain or fragment, native disulfides) CSCSPVHPQQAFCNADVVIRAKAVSEKEVDSGNDIYGNPIKRIQYEIKQIKMFKGPEKDIEFIYTAPSSARCGVSLDVGGKKEYLIAGKAEGDGKMHITLCDFIVPWDTLSTTQKKSLNHRYQMGCE",5.59,86.2,,,,
"N-TIMP2 V71W (domain or fragment, native disulfides) CSCSPVHPQQAFCNADVVIRAKAVSEKEVDSGNDIYGNPIKRIQYEIKQIKMFKGPEKDIEFIYTAPSSAWCGVSLDVGGKKEYLIAGKAEGDGKMHITLCDFIVPWDTLSTTQKKSLNHRYQMGCE",2.99,26.4,34.3,,,
"N-TIMP2 S68E (domain or fragment, native disulfides) CSCSPVHPQQAFCNADVVIRAKAVSEKEVDSGNDIYGNPIKRIQYEIKQIKMFKGPEKDIEFIYTAPESAVCGVSLDVGGKKEYLIAGKAEGDGKMHITLCDFIVPWDTLSTTQKKSLNHRYQMGCE",0.249,4.71,1.42,,,
"N-TIMP2 T99M (domain or fragment, native disulfides) CSCSPVHPQQAFCNADVVIRAKAVSEKEVDSGNDIYGNPIKRIQYEIKQIKMFKGPEKDIEFIYTAPSSAVCGVSLDVGGKKEYLIAGKAEGDGKMHIMLCDFIVPWDTLSTTQKKSLNHRYQMGCE",0.085,8.29,2.05,,,
yeast-displayed N-TIMP2WT (domain or fragment) CSCSPVHPQQAFCNADVVIRAKAVSEKEVDSGNDIYGNPIKRIQYEIKQIKMFKGPEKDIEFIYTAPSSAVCGVSLDVGGKKEYLIAGKAEGDGKMHITLCDFIVPWDTLSTTQKKSLNHRYQMGCE,,,,3.22,36.2,48.2

# Second part, the binder after the results:
Ki [1] [nM],Ki [2] [nM],Ki [3] [nM],Kd [4] [nM],Kd [5] [nM],Kd [6] [nM],Binder
0.031,1.31,0.125,,,,"N-TIMP2 H97R (domain or fragment, native disulfides) CSCSPVHPQQAFCNADVVIRAKAVSEKEVDSGNDIYGNPIKRIQYEIKQIKMFKGPEKDIEFIYTAPSSAVCGVSLDVGGKKEYLIAGKAEGDGKMRITLCDFIVPWDTLSTTQKKSLNHRYQMGCE"
0.099,3.72,3.92,,,,"N-TIMP2 T99Q (domain or fragment, native disulfides) CSCSPVHPQQAFCNADVVIRAKAVSEKEVDSGNDIYGNPIKRIQYEIKQIKMFKGPEKDIEFIYTAPSSAVCGVSLDVGGKKEYLIAGKAEGDGKMHIQLCDFIVPWDTLSTTQKKSLNHRYQMGCE"
0.08,4.24,0.534,,,,"N-TIMP2 T99G (domain or fragment, native disulfides) CSCSPVHPQQAFCNADVVIRAKAVSEKEVDSGNDIYGNPIKRIQYEIKQIKMFKGPEKDIEFIYTAPSSAVCGVSLDVGGKKEYLIAGKAEGDGKMHIGLCDFIVPWDTLSTTQKKSLNHRYQMGCE"
0.181,3.29,2.6,,,,"N-TIMP2 S68M (domain or fragment, native disulfides) CSCSPVHPQQAFCNADVVIRAKAVSEKEVDSGNDIYGNPIKRIQYEIKQIKMFKGPEKDIEFIYTAPMSAVCGVSLDVGGKKEYLIAGKAEGDGKMHITLCDFIVPWDTLSTTQKKSLNHRYQMGCE"
,1.34,,,,,"N-terminal domain of the tissue inhibitor of metalloproteinase 2, wild type (domain or fragment) CSCSPVHPQQAFCNADVVIRAKAVSEKEVDSGNDIYGNPIKRIQYEIKQIKMFKGPEKDIEFIYTAPSSAVCGVSLDVGGKKEYLIAGKAEGDGKMHITLCDFIVPWDTLSTTQKKSLNHRYQMGCE"
